This note sets out measurements from PMC3667720.

This assay addresses β-actin (human (endogenous in MDA-MB-231)) (UniProt P60709). In words: FRET or BRET. In general terms: Bioluminescence resonance energy transfer reports proximity on the nanometre scale.

With “cofilin (from UniProt P23528 1-166) (natural protein)”, the FRET efficiency (control siRNA, 0 min EGF) was found to be 4.34%; the FRET efficiency (β1 integrin siRNA, 0 min EGF) amounted to 3.85%; the increase in FRET efficiency 3 min after EGF against 0 min (control cells) worked out at 40%.
